Measurements: patent publication US20220135655A1 (Dana-Farber, published 2022)

B1: 5B9 (scFv)
scFv: QVQLVQSGAEVKKPGSSVKVSCKASGVTFSSYAISWVRQAPGQGLEWMGGISPMFGTANYAQKFQGRVTITADESTNTAYMELSSLRSEDTAVYYCARGRGYAPDALTNFDVWGQGTLVTVSSGGGSGGGSGGGSGGGSEIVLTQSPDSLAMSLGERATVNCKSSRSLFDSSDNKNYLAWYQKKPGQPPQLLIYWASTRQSGVPDRFSGSGSGTDFTLTISSLQAEDVAVYYCQQYFSSPPIFTFGPGTKVEIK
B2: 5A8 (scFv)
scFv: QVQLVQSGAEVKKPGSSVKVSCKASGGTFSSYAISWVRQAPGQGLEWMGGISPIFGTANYAQKFQGRVTITADESTSTVYMELSSLRSEDTAVYYCARGPGYHPAGASGQFFDLWGQGTLVTVSSGGGSGGGSGGGSGGGSSYELTQPPSVSKDLRQTATLTCTGNSNNVGNQGAAWLQQHQGHPPKLLSYRNNHRPSGISDRSSASRSGDTASLTITGLQPEDEADYYCSAWDSSLSAWVFGGGTKLTVL
B3: 6F3 (scFv)
scFv: QVQLVQSGAEVKKPGSSVKVSCKASGGPFSSYAISWVRQAPGQGLEWMGGISPMFGTANYAQKFQGRVTITADESTSTVYMELSSLRSEDTAVYYCARGYSYYPGGGGGRNFDYWGQGTLVTVSSGGGSGGGSGGGSGGGSLPVLTQPPSASGTPGQRVTISCSGSSSNIGSNTVNWYQQLPGTAPKLLIYSNNQRPSGVPDRFSGSKSGTSASLAISGLQSEGEADYYCAAWDDSLKGRVFGGGTKVTVL
B4: 9H3 (scFv)
scFv: QVQLVQSGAEVKKPGSSVKVSCKASGGIFSSYAISWVRQAPGQGLEWMGGISPIFGTANYAQKFQGRVTITADESTNTAYMELSSLRSEDTAVYYCARSGGYYDYGVGYDQWGQGTLVTVSSGGGSGGGSGGGSGGGSQPVLTQPPSASGTPGQRVTISCSGGRSNIGSNTVNWYQQLPGTAPKLLIYSNNHRPSGVPDRFSGSKSGNTASLTISGLQAEDEADYYCQSYDSSVVFGGGTKLTVL

Target: A/California/04/2009 (H1CA0409) recombinant HA (influenza A virus A/California/04/2009, UniProt P26140 18-529)
Assay: phage display panning (immunotube) against trimeric HA

Binder | binding result
B1 | binds
B2 | binds
B3 | binds
B4 | binds
